Measured values from US5874218, “Method for detecting a target compound in a substance using a nucleic acid ligand” (NeXstar Pharmaceuticals, Inc.).

B1: H-42 (ssRNA)
RNA: GGGAGGACGAUGCGGACAAGGGCCUGAGUGUGGAGGGCACGUGGAGGGGACUGGCCAGACGACUCGCCCGA
modifications: 2'-NH2 pyrimidines (library chemistry)
B2: T-15 (ssRNA)
RNA: GGGAGGACGAUGCGGAUGUUGGCAGCAGGGUCCGACGGCGUAACCUUGCCAGCUGCAGACGACUCGCCCGA
modifications: 2'-NH2 on all C and U

Tests used:
[1] = target: hCG (chorionic gonadotropin) (Homo sapiens, UniProt P01215;P0DN86 P01215:25-116,P0DN86:21-165); assay: dot blot of hCG in urine; detectable at 1.9 nM, saturates above 500 nM; higher signal in low salt buffer with 2 mM MgCl2; details: label: radiolabeled
hCG (chorionic gonadotropin), sequence (P01215 25-116, chain 1 of 2, other chains not shown): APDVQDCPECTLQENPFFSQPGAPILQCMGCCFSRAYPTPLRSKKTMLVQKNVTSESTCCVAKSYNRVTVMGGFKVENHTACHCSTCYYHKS
Procedure: Test urine (obtained from pregnant individuals) and control urine (obtained from males) samples were pre-filtered through 0.2 mm polysulfone filters (Gelman Sciences) to remove particulate matter. hCG suspended in control urine to various concentrations (300 ml) was blotted onto pre-wetted nitrocellulose filters (from BioRad) under vacuum. Radiolabeled nucleic acid ligand to hCG, H-42 RNA (SEQ ID NO: 4)(100 ml of 1 pmole/ml) was then added to blots and filtered. Blots were immediately washed two times with 300 ml of TEM buffer. The blots were dried and analyzed by autoradiography and phosphorimager (Fuji).
In preliminary studies, anti-hCG antibodies were first applied to nitrocellulose blots to capture hCG and subsequently the radiolabeled RNA was used to detect the hormone. Such anti-hCG antibodies were required only if hCG was suspended in a buffer. However, if hCG in urine was used there was no significant difference in the signal in the presence and absence of antibodies. This may be due to the presence of other proteins in urine that serve as nonspecific carriers, effectively retaining hCG on the membrane. […] The signal saturates at high hCG concentration (>500 nM). Even at 1.9 nM hCG concentration, signal above background level was detected. Compared to control male urine (blots 1–3), the urine from a pregnant […] […]

[2] = target: hTSH (thyroid stimulating hormone) (Homo sapiens, UniProt P01215;P01222 P01215:25-116,P01222:21-132); assay: dot blot on nitrocellulose, 50-800 nM hTSH, TEM buffer with 0.1% hSA, 0.5 M urea wash; details: tags: Becton Dickinson, Mr 27,700, 9 IU/mg; label: internally radiolabeled
hTSH (thyroid stimulating hormone), sequence (P01215 25-116, chain 1 of 2): as the sequence (P01215 25-116, chain 1 of 2, other chains not shown) above
hTSH (thyroid stimulating hormone), sequence (P01222 21-132, chain 2 of 2): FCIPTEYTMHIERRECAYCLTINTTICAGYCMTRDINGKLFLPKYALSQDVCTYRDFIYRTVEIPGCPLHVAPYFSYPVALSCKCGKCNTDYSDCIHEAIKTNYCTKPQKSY
Procedure: hTSH was suspended in TEM buffer (300 ml) containing 0.1% hSA (w/v) and applied to pre-wetted nitrocellulose filters (0.45 micron; BioRad) under suction. Gel-purified, internally labeled nucleic acid ligand T-15 (SEQ ID NO: 3) was then applied to the blots in 50 ml of TEM buffer (0.2 pmoles/ml) and filtered gently. Filters were immediately washed three times with 300 ml of 0.5M urea in the same buffer. The blots were dried and analyzed with a phosphorimager and by autoradiography.
The results wherein different concentrations of hTSH (from 800 nM (177 mIU/ml) to 50 nM (11 mIU/ml)) blotted on a nitrocellulose membrane were detected by radiolabeled nucleic acid ligand T-15 are shown in FIG. 4. Very low levels of background binding of RNA to nitrocellulose filters in the absence of hTSH (but with hSA in the buffer) was accomplished by washing blots with 0.5M urea in the binding buffer. This step eliminated most nonspecific binding, yet leaving specific binding of ligand T-15 to hTSH largely unaffected. […] However, with the affinity-selected radiolabeled ligand T-15, the radioactive signal on the blot correlated with the concentration of hTSH used. There is a linear relationship between the radioactive signal and the amount of hTSH up to 100 mIU/ml; the signal saturates above this concentration.

Binder	binding result [1]	binding result [2]
B1	binds	
B2		binds
